Test results taken from patent US20150132313A1.
Each block holds one substance with its values, some of them ahead of it.

What was measured:
human leukocyte IFN = test: cell-based or functional assay
IFNα2a (human) = IFNα2a (human) (UniProt P01563); test: cell-based or functional assay

MEDI-545, sequence (VH): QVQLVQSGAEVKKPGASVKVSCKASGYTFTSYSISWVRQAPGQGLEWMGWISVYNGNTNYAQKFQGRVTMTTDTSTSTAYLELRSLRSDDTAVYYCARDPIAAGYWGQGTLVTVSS
MEDI-545, sequence (VL): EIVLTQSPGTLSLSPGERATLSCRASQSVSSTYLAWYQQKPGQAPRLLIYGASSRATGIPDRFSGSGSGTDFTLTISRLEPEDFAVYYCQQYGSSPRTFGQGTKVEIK

neutralization of ISG15, USP18 and IFIT2 overexpression in keratinocytes stimulated with 150 I.U./mL leukocyte IFN (human leukocyte IFN): 70 to 100%
HERC5 gene expression (Average), 107 IFN + 545 (107 IFN alone 41.12; 107 VEH 1.00) (IFNα2a (human)): 6.29
HERC5 gene expression (Average), 163 IFN + 545 (163 IFN alone 75.81; 163 VEH 1.05) (IFNα2a (human)): 7.83
HERC5 gene expression (Average), 175 IFN + 545 (175 IFN alone 74.58; 175 VEH 1.19) (IFNα2a (human)): 6.89
IFIT1 gene expression, Average (TAQMAN, whole blood + 100 IU IFNα2a + MEDI-545; donor 107; IFN alone 80.21) (relative expression) (IFNα2a (human)): 13.1
IFIT1 gene expression, Average (TAQMAN, whole blood + 100 IU IFNα2a + MEDI-545; donor 163; IFN alone 51.65) (relative expression) (IFNα2a (human)): 7.6
IFIT1 gene expression, Average (TAQMAN, whole blood + 100 IU IFNα2a + MEDI-545; donor 175; IFN alone 82.98) (relative expression) (IFNα2a (human)): 8.4
IFIT3 gene expression, Average (TAQMAN, whole blood + 100 IU IFNα2a + MEDI-545; donor 107; IFN alone 38.43) (relative expression) (IFNα2a (human)): 6.78
IFIT3 gene expression, Average (TAQMAN, whole blood + 100 IU IFNα2a + MEDI-545; donor 163; IFN alone 25.94) (relative expression) (IFNα2a (human)): 4.58
IFIT3 gene expression, Average (TAQMAN, whole blood + 100 IU IFNα2a + MEDI-545; donor 175; IFN alone 35.02) (relative expression) (IFNα2a (human)): 5.28
IL6ST gene expression, Average (TAQMAN, whole blood + 100 IU IFNα2a + MEDI-545; donor 107; IFN alone 3.54) (relative expression) (IFNα2a (human)): 2.62
IL6ST gene expression, Average (TAQMAN, whole blood + 100 IU IFNα2a + MEDI-545; donor 163; IFN alone 7.69) (relative expression) (IFNα2a (human)): 4.18
IL6ST gene expression, Average (TAQMAN, whole blood + 100 IU IFNα2a + MEDI-545; donor 175; IFN alone 7.62) (relative expression) (IFNα2a (human)): 2.95
IRF7 gene expression, Average (TAQMAN, whole blood + 100 IU IFNα2a + MEDI-545; donor 107; IFN alone 18.53) (relative expression) (IFNα2a (human)): 3.42
IRF7 gene expression, Average (TAQMAN, whole blood + 100 IU IFNα2a + MEDI-545; donor 163; IFN alone 17.16) (relative expression) (IFNα2a (human)): 2.92
IRF7 gene expression, Average (TAQMAN, whole blood + 100 IU IFNα2a + MEDI-545; donor 175; IFN alone 24.65) (relative expression) (IFNα2a (human)): 2.43
LY6E gene expression, Average (TAQMAN, whole blood + 100 IU IFNα2a + MEDI-545; donor 107; IFN alone 19.09) (relative expression) (IFNα2a (human)): 3.5
LY6E gene expression, Average (TAQMAN, whole blood + 100 IU IFNα2a + MEDI-545; donor 163; IFN alone 13.52) (relative expression) (IFNα2a (human)): 4.8
LY6E gene expression, Average (TAQMAN, whole blood + 100 IU IFNα2a + MEDI-545; donor 175; IFN alone 19.32) (relative expression) (IFNα2a (human)): 3.74
MARCKS gene expression, Average (TAQMAN, whole blood + 100 IU IFNα2a + MEDI-545; donor 163; IFN alone 2.59) (relative expression) (IFNα2a (human)): 1.55
MARCKS gene expression, Average (TAQMAN, whole blood + 100 IU IFNα2a + MEDI-545; donor 175; IFN alone 2.59) (relative expression) (IFNα2a (human)): 0.55
OAS1 gene expression (Average), 107 IFN + 545 (107 IFN alone 15.11; 107 VEH 1.00) (IFNα2a (human)): 3.45
OAS1 gene expression (Average), 163 IFN + 545 (163 IFN alone 14.19; 163 VEH 0.77) (IFNα2a (human)): 3.05
OAS1 gene expression (Average), 175 IFN + 545 (175 IFN alone 22.09; 175 VEH 1.62) (IFNα2a (human)): 4.04
OAS3 gene expression (Average), 107 IFN + 545 (107 IFN alone 49.04; 107 VEH 1.00) (IFNα2a (human)): 7.03
OAS3 gene expression (Average), 163 IFN + 545 (163 IFN alone 42.01; 163 VEH 0.49) (IFNα2a (human)): 14.6
OAS3 gene expression (Average), 175 IFN + 545 (175 IFN alone 37.87; 175 VEH 1.27) (IFNα2a (human)): 3.92
RAB8B gene expression, Average (TAQMAN, whole blood + 100 IU IFNα2a + MEDI-545; donor 163; IFN alone 2.20) (relative expression) (IFNα2a (human)): 1.18
RAB8B gene expression, Average (TAQMAN, whole blood + 100 IU IFNα2a + MEDI-545; donor 175; IFN alone 2.63) (relative expression) (IFNα2a (human)): 1.15
RSAD2 gene expression (Average), 107 IFN + 545 (107 IFN alone 109.64; 107 VEH 1.00) (IFNα2a (human)): 9.88
RSAD2 gene expression (Average), 163 IFN + 545 (163 IFN alone 71.47; 163 VEH 0.56) (IFNα2a (human)): 4.39
RSAD2 gene expression (Average), 175 IFN + 545 (175 IFN alone 126.27; 175 VEH 1.88) (IFNα2a (human)): 8.43
Substance: MEDI-545 (antibody)

HERC5 gene expression (Average), 107 IFN + R347 (107 IFN alone 41.12; 107 VEH 1.00) (IFNα2a (human)): 55
HERC5 gene expression (Average), 163 IFN + R3437 (163 IFN alone 75.81; 163 VEH 1.05) (IFNα2a (human)): 95.4
HERC5 gene expression (Average), 175 IFN + R347 (175 IFN alone 74.58; 175 VEH 1.19) (IFNα2a (human)): 98.2
OAS1 gene expression (Average), 107 IFN + R347 (107 IFN alone 15.11; 107 VEH 1.00) (IFNα2a (human)): 17.8
OAS1 gene expression (Average), 163 IFN + R3437 (163 IFN alone 14.19; 163 VEH 0.77) (IFNα2a (human)): 22.4
OAS1 gene expression (Average), 175 IFN + R347 (175 IFN alone 22.09; 175 VEH 1.62) (IFNα2a (human)): 15.2
OAS3 gene expression (Average), 107 IFN + R347 (107 IFN alone 49.04; 107 VEH 1.00) (IFNα2a (human)): 76.9
OAS3 gene expression (Average), 163 IFN + R3437 (163 IFN alone 42.01; 163 VEH 0.49) (IFNα2a (human)): 52.6
OAS3 gene expression (Average), 175 IFN + R347 (175 IFN alone 37.87; 175 VEH 1.27) (IFNα2a (human)): 34.9
RSAD2 gene expression (Average), 107 IFN + R347 (107 IFN alone 109.64; 107 VEH 1.00) (IFNα2a (human)): 107
RSAD2 gene expression (Average), 163 IFN + R3437 (163 IFN alone 71.47; 163 VEH 0.56) (IFNα2a (human)): 115
RSAD2 gene expression (Average), 175 IFN + R347 (175 IFN alone 126.27; 175 VEH 1.88) (IFNα2a (human)): 91
Substance: R347 (antibody)
